Experimental data from PMC13483459.

Biological target: retromer–SNX3 complex (VPS26A, VPS35-VPS29 fusion, SNX3) (human) (UniProt Q96QK1)

KRQKGKPKRKSKYKILDAT [AAVR cytosolic tail peptide (residues 956-974)]
mean tube length per liposome (liposome tubulation with retromer and SNX3): 503 nm | proportion of liposomes tubulated (cryo-EM; 2.5 uM retromer, 8.75 uM SNX3, 25 uM peptide, 600 uM liposomes, overnight at 4°C; n = 3): 3.54%

KRQKGKPKRKSK [AAVR cytosolic tail peptide lacking the predicted sorting signal (residues 956-967)]
proportion of liposomes tubulated (cryo-EM; liposomes with retromer, SNX3 and the peptide lacking the motif): 0%

AQPELYLLNTMDADSLVSR [DMT1-II cargo peptide (residues 550-568)]
mean tube length per liposome (liposome tubulation with retromer and SNX3): 568 nm | proportion of liposomes tubulated (cryo-EM; 2.5 uM retromer, 8.75 uM SNX3, 25 uM peptide, 600 uM liposomes, overnight at 4°C; n = 3): 4.15%
